Kd data for 4 molecules are collected here from PMC7913761.

Changes are numbered by the printed parent chain.

Common to all, as to assay: SPR
Data set [1] concerns the target T1, IRF4 DBD WT (human, UniProt Q15306 21-130).
T1 sequence: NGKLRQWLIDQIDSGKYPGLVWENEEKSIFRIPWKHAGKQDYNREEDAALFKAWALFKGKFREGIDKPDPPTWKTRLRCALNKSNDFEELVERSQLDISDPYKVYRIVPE

Data set [2] deals with T2, IRF4 DBD L116R (human, UniProt Q15306 21-130, L116R).
T2 sequence: T1 sequence with L96R

In data set [3] the target is T3, IRF4 DBD K59A (human, UniProt Q15306 21-130, K59A).
T3 sequence: T1 sequence with K39A

B1: AICE2 (dsDNA)
DNA 1: GAGGTTTCGGGATGACTAATACT
DNA 2: AGTATTAGTCATCCCGAAACCTC
For the molecule B1, in data set [1], the Kd was determined as 1380 ± 510 nM.

B2: AICE1 (dsDNA)
DNA 1: TAGTGCAGAAATGAGTCAGAGA
DNA 2: TCTCTGACTCATTTCTGCACTA
Regarding B2, the Kd in data set [1] worked out at 2800 ± 480 nM; in data set [2], 2210 ± 30 nM.

B3: ISRE (SPR) (dsDNA)
DNA 1: CAACTGAAACCGAGAAAGC
DNA 2: GCTTTCTCGGTTTCAGTTG
B3: the figures for the Kd in data set [3], in data set [1] and in data set [2] were 660 ± 100 nM, 250 ± 150 nM and 60 ± 40 nM, respectively.

B4: EICE1 (dsDNA)
DNA 1: TAAAAGGAAGTGAAACCAAG
DNA 2: CTTGGTTTCACTTCCTTTTA
As for B4, the Kd in data set [1] turned out to be 260 ± 70 nM; in data set [2], 60 ± 60 nM.

By Kd is commonly meant the concentration at which binding is half-saturated. Lower therefore signals a tighter complex.
